Drawing on patent US11236163, this text covers Kd and EC50 for one molecule.

For experiment [1], the target named is T1, recombinant human LAG-3 fusion protein (human, UniProt P18627).
T1 chain: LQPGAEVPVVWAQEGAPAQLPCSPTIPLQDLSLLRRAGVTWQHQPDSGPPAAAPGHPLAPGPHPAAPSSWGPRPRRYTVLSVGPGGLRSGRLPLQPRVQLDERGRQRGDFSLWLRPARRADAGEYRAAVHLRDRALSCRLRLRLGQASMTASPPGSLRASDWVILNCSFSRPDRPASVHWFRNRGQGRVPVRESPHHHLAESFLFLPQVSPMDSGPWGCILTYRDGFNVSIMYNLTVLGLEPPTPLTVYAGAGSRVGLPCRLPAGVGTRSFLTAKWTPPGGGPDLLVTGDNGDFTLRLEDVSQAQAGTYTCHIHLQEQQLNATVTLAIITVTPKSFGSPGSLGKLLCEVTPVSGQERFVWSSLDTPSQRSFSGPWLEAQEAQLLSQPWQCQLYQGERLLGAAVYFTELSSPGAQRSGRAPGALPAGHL
Kind of experiment: SPR. A general note: In SPR one partner is held on a chip, and binding of the other changes the refractive index at the surface.

Experiment [2] concerns the target T2, human LAG-3 (cell surface) (human, UniProt P18627).
T2 chain: T1 chain
Kind of experiment: FACS, CHO-human LAG-3.

B1: 17E5 (antibody)
chain 1: not shown
chain 2: EIVLTQSPATLSLSPGERATLSCRASQSVSSYLAWYQQKPGQAPRLLIYDASNRATGIPARFSGSGSGTDFTLTISSLEPEDFAVYYCQQRSNWPITFGQGTRLEIK
As for B1, in experiment [1], the Kd turned out to be 4.53 nM. Further, in experiment [2], the EC50 was determined as 12.3 nM.

The Kd is the concentration at which binding is half-saturated. One may read the EC50 as the midpoint of the concentration-response curve. Low readings indicate higher potency in that assay, high ones lower potency in that assay.
